The test system of series [1] is Saccharomyces cerevisiae. In words: protein stability index of tFT-peptide fusion (C-terminal peptide) (PSI (0-1 scale)); higher = more stable (slower turnover). Here is the method: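 MPS profiling in S. cerevisiae of the tFT-X12 degron library: putative degron peptides plus stable controls, 12 aa, fused to the C-terminus of a sfGFP-mCherry timer. Cells are FACS-sorted into 8 mCherry/sfGFP bins and deep-sequenced. PSI runs from 0 (unstable) to 1 (stable). Backgrounds are wild type, das1Δ and doa10Δ at 30 °C, and wild type, das1Δ, cdc34-1 and cdc53-1 at 37 °C; 2-3 technical replicates each.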

The subject of series [2] is Saccharomyces cerevisiae. Described as above. As to conditions: genetic background: wild type; temperature: 30 C.
Setting [3] is: genetic background: cdc34-1, temperature: 37 C.
Where [4] appears, read: genetic background: cdc53-1, temperature: 37 C.
Where [5] appears, read: genetic background: das1 deletion, temperature: 30 C.
The mark [6] stands for this setting: genetic background: das1 deletion, temperature: 37 C.
[7] abbreviates: genetic background: doa10 deletion, temperature: 30 C.
[8] abbreviates: genetic background: wild type, temperature: 30 C.
[9] abbreviates: genetic background: wild type, temperature: 37 C.

± gives the standard deviation of the averaged measurements.
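Further: PSI is a weighted mean of sequencing reads over stability bins, variants kept only with over 10 reads, mCherry proximal and sfGFP distal, peptide attached via GGGS linker.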

As for RYEKIIKQINKQ, the protein stability index was 0.609 ± 0.062 in the series with Saccharomyces cerevisiae [1] (setting [3]); 0.738 ± 0.015 in the series on Saccharomyces cerevisiae [1] (setting [4]); 0.655 ± 0.037 in the series on Saccharomyces cerevisiae [1] (setting [5]); 0.7664 ± 0.0071 in the series with Saccharomyces cerevisiae [1] (setting [6]); 0.13 ± 0.034 with Saccharomyces cerevisiae [1] (setting [7]); 0.164 ± 0.06 in the series with Saccharomyces cerevisiae [1] (setting [8]). Besides, the results for the protein stability index with Saccharomyces cerevisiae [1] (setting [9]) and with Saccharomyces cerevisiae [2] were 0.429 ± 0.011 and 0.268 ± 0.044, respectively.
In the case of RYSVIRWMLIVC, the protein stability index with Saccharomyces cerevisiae [1] (setting [3]) turned out to be 0.0413 ± 0.012; in the series on Saccharomyces cerevisiae [1] (setting [4]), 0.0475 ± 0.01; in the series on Saccharomyces cerevisiae [1] (setting [5]), 0.0885 ± 0.021; with Saccharomyces cerevisiae [1] (setting [6]), 0.13 ± 0.0059; with Saccharomyces cerevisiae [1] (setting [7]), 0.0358 ± 0.01; in the series on Saccharomyces cerevisiae [1] (setting [8]), 0.0321 ± 0.0053. The protein stability index in the series on Saccharomyces cerevisiae [1] (setting [9]) came to 0.0441 ± 0.0061; with Saccharomyces cerevisiae [2], 0.051 ± 0.013.
On to SALLLWAISIIC, for which the protein stability index in the series with Saccharomyces cerevisiae [1] (setting [3]) was found to be 0.0476 ± 0.0084; with Saccharomyces cerevisiae [1] (setting [4]), 0.117 ± 0.055; with Saccharomyces cerevisiae [1] (setting [5]) it was 0.169 ± 0.031; in the series with Saccharomyces cerevisiae [1] (setting [6]), 0.221 ± 0.011; in the series with Saccharomyces cerevisiae [1] (setting [7]) it was 0.117 ± 0.019; in the series on Saccharomyces cerevisiae [1] (setting [8]), 0.15 ± 0.023. For the same sequence, the values for the protein stability index in the series on Saccharomyces cerevisiae [1] (setting [9]) and in the series on Saccharomyces cerevisiae [2] were 0.185 ± 0.011 and 0.22 ± 0.015, respectively.
On to SCDMIVTLIQIR, for which the protein stability index was 0.5 ± 0.047 in the series on Saccharomyces cerevisiae [1] (setting [3]); 0.53 ± 0.022 in the series on Saccharomyces cerevisiae [1] (setting [4]); 0.375 ± 0.033 in the series on Saccharomyces cerevisiae [1] (setting [5]); 0.539 ± 0.0092 in the series on Saccharomyces cerevisiae [1] (setting [6]); 0.35 ± 0.016 with Saccharomyces cerevisiae [1] (setting [7]); 0.383 ± 0.02 in the series with Saccharomyces cerevisiae [1] (setting [8]). Moreover, the protein stability index in the series with Saccharomyces cerevisiae [1] (setting [9]) was determined as 0.527 ± 0.0017; in the series on Saccharomyces cerevisiae [2] it was 0.409 ± 0.027.
Regarding SCICTSCLVLVL, the protein stability index in the series on Saccharomyces cerevisiae [1] (setting [3]) was 0.5223 ± 0.0033; in the series on Saccharomyces cerevisiae [1] (setting [4]), 0.509 ± 0.024; with Saccharomyces cerevisiae [1] (setting [5]), 0.327 ± 0.032; in the series on Saccharomyces cerevisiae [1] (setting [6]) it was 0.552 ± 0.002; with Saccharomyces cerevisiae [1] (setting [7]), 0.298 ± 0.011; in the series on Saccharomyces cerevisiae [1] (setting [8]), 0.32 ± 0.029. Further, the protein stability index in the series with Saccharomyces cerevisiae [1] (setting [9]) came out at 0.5334 ± 0.0046; in the series with Saccharomyces cerevisiae [2] it was 0.368 ± 0.049.
As for SCPEFNIRVRNG, the protein stability index in the series on Saccharomyces cerevisiae [1] (setting [3]) worked out at 0.641 ± 0.033; with Saccharomyces cerevisiae [1] (setting [4]), 0.669 ± 0.047; in the series on Saccharomyces cerevisiae [1] (setting [5]), 0.661 ± 0.023; with Saccharomyces cerevisiae [1] (setting [6]) it was 0.731 ± 0.012; in the series with Saccharomyces cerevisiae [1] (setting [7]), 0.138 ± 0.022; in the series on Saccharomyces cerevisiae [1] (setting [8]), 0.168 ± 0.028. In addition, the protein stability index in the series on Saccharomyces cerevisiae [1] (setting [9]) turned out to be 0.409 ± 0.045; in the series with Saccharomyces cerevisiae [2] it was 0.297 ± 0.11.
Turning to SCSHYRLICSRL, the protein stability index in the series with Saccharomyces cerevisiae [1] (setting [3]) came to 0.9109 ± 0.0012; with Saccharomyces cerevisiae [1] (setting [4]), 0.92 ± 0.015; in the series on Saccharomyces cerevisiae [1] (setting [5]), 0.752 ± 0.022; with Saccharomyces cerevisiae [1] (setting [6]), 0.87 ± 0.012; in the series on Saccharomyces cerevisiae [1] (setting [7]), 0.6118 ± 0.0026; in the series on Saccharomyces cerevisiae [1] (setting [8]), 0.579 ± 0.033. Moreover, the protein stability index in the series on Saccharomyces cerevisiae [1] (setting [9]) worked out at 0.7975 ± 0.0065; in the series on Saccharomyces cerevisiae [2], 0.598 ± 0.25.
Turning to SDVHLKSEALAA, the protein stability index amounted to 0.682 ± 0.024 in the series with Saccharomyces cerevisiae [1] (setting [3]); 0.69 ± 0.0095 in the series on Saccharomyces cerevisiae [1] (setting [4]); 0.569 ± 0.025 with Saccharomyces cerevisiae [1] (setting [5]); 0.656 ± 0.013 in the series with Saccharomyces cerevisiae [1] (setting [6]); 0.5543 ± 0.0018 in the series with Saccharomyces cerevisiae [1] (setting [7]); 0.568 ± 0.02 in the series with Saccharomyces cerevisiae [1] (setting [8]). Moreover, the protein stability index is 0.663 ± 0.024 in the series with Saccharomyces cerevisiae [1] (setting [9]) and 0.542 ± 0.11 in the series with Saccharomyces cerevisiae [2].
On to SFFLIISFFVRV, for which the protein stability index in the series with Saccharomyces cerevisiae [1] (setting [3]) worked out at 0.2341 ± 0.0015; in the series with Saccharomyces cerevisiae [1] (setting [4]), 0.394 ± 0.051; with Saccharomyces cerevisiae [1] (setting [5]), 0.23 ± 0.049; with Saccharomyces cerevisiae [1] (setting [6]), 0.366 ± 0.031; in the series on Saccharomyces cerevisiae [1] (setting [7]), 0.239 ± 0.028; with Saccharomyces cerevisiae [1] (setting [8]), 0.224 ± 0.054. Moreover, the protein stability index in the series on Saccharomyces cerevisiae [1] (setting [9]) amounted to 0.336 ± 0.013; with Saccharomyces cerevisiae [2], 0.338 ± 0.066.
On to SFFSFLLLRVPC, for which the protein stability index with Saccharomyces cerevisiae [1] (setting [3]) came to 0.119 ± 0.022; with Saccharomyces cerevisiae [1] (setting [4]) it was 0.144 ± 0.019; in the series with Saccharomyces cerevisiae [1] (setting [5]), 0.203 ± 0.026; with Saccharomyces cerevisiae [1] (setting [6]), 0.303 ± 0.022; in the series with Saccharomyces cerevisiae [1] (setting [7]), 0.199 ± 0.0044; in the series with Saccharomyces cerevisiae [1] (setting [8]), 0.201 ± 0.026. Also, the figures for the protein stability index in the series with Saccharomyces cerevisiae [1] (setting [9]) and in the series on Saccharomyces cerevisiae [2] were 0.288 ± 0.043 and 0.308 ± 0.03, respectively.
SFGSMIITYAWG: the protein stability index with Saccharomyces cerevisiae [1] (setting [3]) was determined as 0.616 ± 0.011; with Saccharomyces cerevisiae [1] (setting [4]), 0.623 ± 0.0089; in the series on Saccharomyces cerevisiae [1] (setting [5]), 0.467 ± 0.021; in the series on Saccharomyces cerevisiae [1] (setting [6]) it was 0.638 ± 0.021; in the series with Saccharomyces cerevisiae [1] (setting [7]), 0.491 ± 0.065; in the series on Saccharomyces cerevisiae [1] (setting [8]), 0.486 ± 0.034. The protein stability index in the series on Saccharomyces cerevisiae [1] (setting [9]) was determined as 0.637 ± 0.026; in the series on Saccharomyces cerevisiae [2] it was 0.473 ± 0.034.
Turning to SFWLGVGIFFVG, the protein stability index with Saccharomyces cerevisiae [1] (setting [3]) came to 0.544 ± 0.038; in the series with Saccharomyces cerevisiae [1] (setting [4]), 0.597 ± 0.022; in the series on Saccharomyces cerevisiae [1] (setting [5]), 0.434 ± 0.028; with Saccharomyces cerevisiae [1] (setting [6]), 0.618 ± 0.028; in the series with Saccharomyces cerevisiae [1] (setting [7]), 0.405 ± 0.013; in the series on Saccharomyces cerevisiae [1] (setting [8]), 0.419 ± 0.023. Further, the figures for the protein stability index in the series with Saccharomyces cerevisiae [1] (setting [9]) and in the series on Saccharomyces cerevisiae [2] were 0.559 ± 0.015 and 0.481 ± 0.021, respectively.
In the case of SFYVWILLWSYY, the protein stability index with Saccharomyces cerevisiae [1] (setting [3]) worked out at 0.26 ± 0.0071; in the series on Saccharomyces cerevisiae [1] (setting [4]), 0.256 ± 0.012; in the series on Saccharomyces cerevisiae [1] (setting [5]), 0.252 ± 0.023; with Saccharomyces cerevisiae [1] (setting [6]), 0.384 ± 0.032; in the series with Saccharomyces cerevisiae [1] (setting [7]) it was 0.223 ± 0.015; in the series on Saccharomyces cerevisiae [1] (setting [8]), 0.214 ± 0.024. Besides, the results for the protein stability index in the series with Saccharomyces cerevisiae [1] (setting [9]) and in the series on Saccharomyces cerevisiae [2] were 0.323 ± 0.014 and 0.294 ± 0.021, respectively.
Consider SGGRFVLFIIAV, for which the protein stability index in the series on Saccharomyces cerevisiae [1] (setting [3]) turned out to be 0.444 ± 0.012; in the series with Saccharomyces cerevisiae [1] (setting [4]) it was 0.538 ± 0.048; in the series on Saccharomyces cerevisiae [1] (setting [5]) it was 0.376 ± 0.031; in the series on Saccharomyces cerevisiae [1] (setting [6]) it was 0.582 ± 0.013; in the series on Saccharomyces cerevisiae [1] (setting [7]), 0.344 ± 0.022; in the series on Saccharomyces cerevisiae [1] (setting [8]) it was 0.37 ± 0.023. The protein stability index in the series on Saccharomyces cerevisiae [1] (setting [9]) came out at 0.535 ± 0.0051; in the series on Saccharomyces cerevisiae [2] it was 0.42491 ± 0.00036.
Regarding SGVHWFRGNSWG, the protein stability index in the series with Saccharomyces cerevisiae [1] (setting [3]) was 0.697 ± 0.00077; with Saccharomyces cerevisiae [1] (setting [4]) it was 0.749 ± 0.012; with Saccharomyces cerevisiae [1] (setting [5]) it was 0.653 ± 0.0093; with Saccharomyces cerevisiae [1] (setting [6]), 0.74 ± 0.027; in the series on Saccharomyces cerevisiae [1] (setting [7]) it was 0.657 ± 0.0087; in the series on Saccharomyces cerevisiae [1] (setting [8]), 0.646 ± 0.013. The protein stability index came to 0.716 ± 0.036 in the series on Saccharomyces cerevisiae [1] (setting [9]) and 0.712 ± 0.0087 with Saccharomyces cerevisiae [2].

The values are drawn from the supplement of paper PMC10724198.
